The target in this test is T1, human VISTA (human, UniProt Q9H7M9 33-194, limits assumed).
T1 construct: The ELISA text says only recombinant VISTA; also called recombinant VISTA
As to the kind of experiment: method not stated (Table 1, column Kd, M).

Numbering of substitutions follows the chain as printed.

B1: INX912 | VSTB84 (antibody, V domains shown)
VH: QVQLVQSGAEVKKPGASVKVSCKASGYTFTSYWMHWVRQAPGQGLEWMGYINPSTGYPGYNQKFKDRVTMTRDTSTSTVYMELSSLRSEDTAVYYCARSYYDYDGGAWFAYWGQGTTVTVSS
VL: DIVMTQTPLSLSVTPGQPASISCRASESVEYYGTSLMQWYLQKPGQPPQLLIYAASNVESGVPDRFSGSGSGTDFTLKISRVEAEDVGVYYCQQSRKVPSTFGQGTKLEIKR
In general, Kd refers to a measure of binding affinity in units of concentration. For B1, the dissociation constant Kd worked out at 2.03 nM. This lies in the single-digit nanomolar range.

B2: VSTB51 (antibody, V domains shown)
VH: EVQLVESGGGLVQPGGSLRLSCAASGFTFSSYTMSWVRQAPGKGLEWVATISNSGSYTYYLDSVKGRFTISRDNAKNSLYLQMNSLRAEDTAVYYCARDTVLSPFDYWGQGTTVTVSS
VL: EIVLTQSPDFQSVTPKEKVTITCSATSSISYMHWYQQKPDQSPKLLIKDTSELASGVPSRFSGSGSGTDFTLTINSLEAEDAATYYCHQRSSFTFGQGTKLEIKR
As to B2, the Kd came to 0.104 nM. This Kd lies about 20-fold lower than the previous one.

B3: INX910 | VSTB73 (antibody, V domains shown)
VH: QVQLVQSGAEVKKPGASVKVSCKASGYTFTDYVISWVRQAPGQGLEWMGEIYPGSGNTYYYEKFKGRVTMTRDTSTSTVYMELSSLRSEDTAVYYCARVLVSVMDYWGQGTLVTVSS
VL: EIVLTQSPDFQSVTPKEKVTITCSASSSINYITWYQQKPDQSPKLLIKDTSKLASGVPSRFSGSGSGTDFTLTINSLEAEDAATYYCHQRSSYPWTFGQGTRLEIKR
Take B3: the Kd worked out at 2.26 nM.

B4: INX909 | VSTB67 (antibody, V domains shown)
VH: QVQLVQSGAEVKKPGASVKVSCKASDYIFSSYWIQWVRQAPGQGLEWMGEIFPGSGGTNYNEKFKGRVTMTRDTSTSTVYMELSSLRSEDTAVYYCARAIYYDYDMYYFDSWGQGTTVTVSS
VL: DIQMTQSPSSLSASVGDRVTITCRASQDISSYLNWYQQKPGKVPKLLIYYTSRLHSGVPSRFSGSGSGTDFTLTISSLQPEDVATYYCQHVNTLPWTFGQGTKLEIKR
B4 came in with a Kd of 0.0629 nM.

B5: INX913 | VSTB85 (antibody, V domains shown)
VH: QVQLVQSGAEVKKPGASVKVSCKASGYTFTDYAMHWVRQAPGQGLEWMGVIDTYYGNTNYNQKFKGRVTMTRDTSISTAYMELSRLRSDDTAVYYCARGGGDALDYWGQGTTVTVSS
VL: DIQMTQSPSSLSASVGDRVTITCKASQSVSNDVVWYQQKPGKAPKLLIYYASNRYIGVPSRFSGSGSGTDFTFTISSLQPEDIATYYCQQGYTSLRTFGQGTKLEIKR
Molecule B5 displayed a Kd of 0.0378 nM. Against the preceding molecule, the Kd is about 1.7-fold lower.

B6: VSTB59 (antibody, V domains shown)
VH: QVQLVQSGAEVKKPGASVKVSCKASGYTFTDYWMHWVRQAPGQGLEWMGAIETSLNYPSYNQKFKGRVTMTRDTSTSTVYMELSSLRSEDTAVYYCARWGIYGNPWFAYWGRGTLVTVSS
VL: DIVMTQTPLSLSVTPGQPASISCRASESVDSYVNSFVHWYLQKPGQPPQLLIYRASNLESGVPDRFSGSGSGTDFTLKISRVEAEDVGVYYCQQSNEDPYTFGQGTKLEIKR
Molecule B6 had a Kd of 0.106 nM.

B7: VSTB81 (antibody, V domains shown)
VH: QVTLKESGPALVKPTQTLTLTCTFSGFSLSTSGMGVSWIRQPPGKALEWLAHIYWDDDKRYNPSLKSRLTISKDTSKNQVVLTMTNMDPVDTATYYCARRPDYFGSSYVDWGQGTTVTVSS
VL: B6 VL with S31T, V33G, V37M, R54L, E59D, S60F, S95N, Y100W
Consider B7, for which binding was put at a Kd of 0.312 nM.

B8: INX919 | VSTB115 (antibody, V domains shown)
VH: QVQLVQSGAEVKKPGSSVKVSCKASGGTFSSYAISWVRQAPGQGLEWMGGIIPIFGTANYAQKFQGRVTITADESTSTAYMELSSLRSEDTAVYYCARSSYGWSYEFDYWGQGTLVTVSS
VL: DIQMTQSPSSLSASVGDRVTITCRASQSIRTYLNWYQQKPGKAPKLLIYAASSLQSGVPSRFSGSGSGTDFTLTISSLQPEDFATYYCQQAYSNPITFGQGTKVEIKR
B8 yielded a dissociation constant Kd of 0.145 nM.

B9: VSTB114 (antibody, V domains shown)
VH: B8 VH with S99H, Y101I, S104V, Y105A, F107L
VL: B8 VL with R30A, Y32S, A50Y, A91G, Y92A, S93Y, N94Y, I96L
The molecule B9 registered a Kd of 0.152 nM. This Kd and that of the molecule before are within 1.5-fold of each other.

B10: INX917 | VSTB110 (antibody, V domains shown)
VH: B8 VH with S99H, Y101I, S104V, Y105A, F107L
VL: B8 VL with R30N, Y32D, A91G, Y92A, N94D
Molecule B10 showed a Kd of 0.202 nM.

B11: VSTB116 (antibody, V domains shown)
VH: B8 VH
VL: B8 VL with R30N, Y32N, Y92R, S93D, N94T
On to B11, for which the Kd was 0.213 nM.

B12: VSTB105 (antibody, V domains shown)
VH: B8 VH
VL: B8 VL with R30A, Y32N, A91N, Y92D, S93D, N94R
The molecule B12 came in with a Kd of 0.115 nM. This Kd is about 1.9-fold lower than that of the molecule before.

B13: INX918 | VSTB113 (antibody, V domains shown)
VH: B8 VH with S99H, Y101I, S104V, Y105A, F107L
VL: B8 VL with R30A, Y32D, Y92H, S93W, N94Y, I96L
As for B13, the affinity, expressed as Kd, was 0.0433 nM. This Kd lies about 2.7-fold lower than the previous one.

B14: VSTB108 (antibody, V domains shown)
VH: B8 VH with S99N, S100T, Y101F, Y105G, F107L
VL: B8 VL with R30S, T31N, Y32R, A50S, A91N, Y92H, S93D
In the case of B14, the Kd is 0.494 nM.

B15: INX915 | VSTB106 (antibody, V domains shown)
VH: B8 VH
VL: B8 VL with Y32D, A50S, A91N, Y92E, S93R, N94T
Take B15: the Kd amounted to 0.167 nM.

B16: VSTB109 (antibody, V domains shown)
VH: B8 VH
VL: B8 VL with R30A, A91N, Y92H, S93N, N94R
For the molecule B16, binding was put at a Kd of 0.102 nM.

B17: VSTB111 (antibody, V domains shown)
VH: B8 VH
VL: B8 VL with R30N, Y32D, A91N, Y92R, S93G, N94S
For the molecule B17, the Kd is 0.171 nM. Against the preceding molecule, the Kd is about 1.7-fold higher.

B18: INX916 | VSTB107 (antibody, V domains shown)
VH: B8 VH
VL: B8 VL with R30N, T31N, Y32D, A91N, Y92R, S93A, N94T
For B18, the Kd is 0.089 nM.

B19: VSTB49 (antibody, V domains shown)
VH: QVQLVQSGAEVKKPGASVKVSCKASGYTFPSHTIHWVRQAPGQRLEWMGSIYPFIDSTIYNQKFKDRVTITRDTSASTAYMELSSLRSEDTAVYYCARGIRGYTMDYWGQGTLVTVSS
VL: DVVMTQSPLSLPVTLGQPASISCRASESVDNYGLSFMNWFQQRPGQSPRRLIYGASNQGSGVPDRFSGSGSGTDFTLKISRVEAEDVGVYYCQQSKEVPYTFGQGTKLEIKR
In turn, B19 gave a Kd of 0.507 nM.

B20: INX904 | VSTB103 (antibody, V domains shown)
VH: EVQLVQSGAEVKKPGESLKISCKGSGYSFTSYWIGWVRQMPGKGLEWMGIIYPGDSDTRYSPSFQGQVTISADKSISTAYLQWSSLKASDTAMYYCARDDALYGGYYLDYWGQGTLVTVSS
VL: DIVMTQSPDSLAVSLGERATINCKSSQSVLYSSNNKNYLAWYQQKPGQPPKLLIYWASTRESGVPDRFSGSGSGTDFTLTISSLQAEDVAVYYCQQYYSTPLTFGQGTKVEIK
notes: INX name = the VSTB variable regions with human IgG2 constant regions
In the case of B20, the affinity, expressed as Kd, was 0.636 nM. The Kd values of the last two molecules are within 1.5-fold of each other.

B21: INX903 | VSTB95 (antibody, V domains shown)
VH: EVQLVESGGGLVQPGGSLRLSCAASGFTFRNYGMSWVRQAPGKGLEWVASIISGGSYTYYPDSVKGRFTISRDNAKNSLYLQMNSLRAEDTAVYYCARIYDHDGDYYAMDYWGQGTTVTVSS
VL: DIVMTQSPLSLPVTPGEPASISCRSSQSIVHSNGNTYLEWYLQKPGQSPQLLIYKVSNRFSGVPDRFSGSGSGTDFTLKISRVEAEDVGVYYCFQGSHVPWTFGQGTKLEIK
notes: INX903 = VSTB95 variable regions with wild-type human IgG2 constant regions
The molecule B21 gave a dissociation constant (Kd) of 0.126 nM.

B22: INX905 | VSTB53 (antibody, V domains shown)
VH: QVQLVQSGAEVKKPGASVKVSCKASGYTFTHYTIHWVRQAPGQGLEWMGYIIPSSGYSEYNQKFKDRVTMTRDTSTSTVYMELSSLRSEDTAVYYCARGAYDDYYDYYAMDYWGQGTLVTVSS
VL: B21 VL with S28T, G96A
notes: as for B20
As to B22, the Kd was 0.0264 nM.

B23: VSTB65 (antibody, V domains shown)
VH: QVQLVQSGAEVKKPGASVKVSCKASGYTFTSYWIHWVRQAPGQGLEWMGEINPSNGLTNYNEKFRNRVTMTRDTSTSTVYMELSSLRSEDTAVYYCARSYDYDGDYYAMDYWGQGTLVTVSS
VL: DIVMTQSPLSLPVTPGEPASISCRSTQSIVHSNGNTYLEWYLQKPGQSPQLLIYKVSNRFSGVPDRFSGSGSGTDFTLKISRVEAEDVGVYYCFQASHVPWTFGQGTKLEIKR
As for B23, the Kd came out at 1.08 nM.

B24: INX911 | VSTB76 (antibody, V domains shown)
VH: QVQLVQSGAEVKKPGASVKVSCKASGYTFTDYWINWVRQAPGQGLEWMGNIYPSHSYTNYNQEFKDRVTMTRDTSTSTVYMELSSLRSEDTAVYYCARGGYRYPYYAMDYWGQGTTVTVSS
VL: AIQLTQSPSSLSASVGDRVTITCGASENIYGALNWYQQKPGKAPKLLIYGATNLADGVPSRFSGSGSGTDFTLTISSLQPEDFATYYCQNVLSTPYTFGQGTKLEIKR
Turning to B24, binding was put at a Kd of 1.31 nM. This Kd and that of the molecule before are within 1.5-fold of each other.

B25: VSTB70 (antibody, V domains shown)
VH: EVQLVQSGAEVKKPGATVKISCKVSGYTFSNYWIEWVQQAPGKGLEWMGEILPGSGNVHYNEKFKGRVTITADTSTDTAYMELSSLRSEDTAVYYCATPPHYYGYDYYDVNYWGQGTLVTVSS
VL: DVVMTQSPLSLPVTLGQPASISCKSSQSLLDSDGKTYLNWFQQRPGQSPRRLIYLVSELDSGVPDRFSGSGSGTDFTLKISRVEAEDVGVYYCWQGTHFPQTFGQGTKLEIKR
For B25, the Kd was 2.23 nM.

B26: VSTB100 (antibody, V domains shown)
VH: EVQLVQSGAEVKKPGESLKISCKGSGYSFTSYWIGWVRQMPGKGLEWMGIIYPGDSDTRYSPSFQGQVTISADKSISTAYLQWSSLKASDTAMYYCARDVSSFYGYSPMFDYWGQGTLVTVSS
VL: EIVLTQSPATLSLSPGERATLSCRASQSVSSYLAWYQQKPGQAPRLLIYDASNRATGIPARFSGSGSGTDFTLTISSLEPEDFAVYYCQQRSNWPLTFGQGTKVEIKR
Turning to B26, the Kd came out at 1.48 nM.

B27: VSTB104 (antibody, V domains shown)
VH: B26 VH with V100A, S101N, G105S, Y106A, S107A, P108S, M109I
VL: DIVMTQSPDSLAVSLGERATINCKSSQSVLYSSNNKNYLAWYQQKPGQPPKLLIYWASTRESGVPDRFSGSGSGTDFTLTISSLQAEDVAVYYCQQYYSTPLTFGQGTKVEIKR
With B27, binding was put at a Kd of 0.675 nM.

Values taken from US20210017281A1 (IMMUNEXT, published 2021).
